How the values were obtained:
[1] = biological target: recombinant human 4-1BB-Fc chimera (R&D Systems) (human) (UniProt Q07011); experiment: SPR (BIAcore 2000), 4-1BB-Fc coupled to CM5 chip, ligand in flow, 25°C
[2] = biological target: 4-1BB on CD3-stimulated human T lymphocytes (PBMC) (human) (UniProt Q07011); experiment: flow cytometry on CD3-stimulated PBMC, PE-conjugated antibody
[3] = biological target: 4-1BB on CD3-stimulated human T lymphocytes (PBMC) (human) (UniProt Q07011); experiment: flow cytometry on CD3-stimulated PBMC, ligand at 10 µg/ml revealed by PE-conjugated streptavidine
[4] = biological target: 4-1BB on CD3-stimulated human T lymphocytes (PBMC) (human) (UniProt Q07011); experiment: cell-based or functional assay

recombinant human 4-1BB-Fc chimera (R&D Systems) (human), sequence (Q07011 24-186, change not shown): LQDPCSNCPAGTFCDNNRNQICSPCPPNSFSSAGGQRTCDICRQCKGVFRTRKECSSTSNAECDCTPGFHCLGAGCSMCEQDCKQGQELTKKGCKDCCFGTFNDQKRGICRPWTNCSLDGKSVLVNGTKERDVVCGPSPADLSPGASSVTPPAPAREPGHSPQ
4-1BB on CD3-stimulated human T lymphocytes (PBMC) (human), sequence (Q07011 24-255): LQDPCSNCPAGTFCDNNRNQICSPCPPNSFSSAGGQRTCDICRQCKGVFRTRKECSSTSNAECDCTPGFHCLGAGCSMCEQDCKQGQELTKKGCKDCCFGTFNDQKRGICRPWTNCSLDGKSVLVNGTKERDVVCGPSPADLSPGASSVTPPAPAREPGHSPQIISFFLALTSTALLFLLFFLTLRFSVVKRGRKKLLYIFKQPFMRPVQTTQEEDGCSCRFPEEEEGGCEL

Work on “C51S AviTag-4-1BBL (from UniProt P41273 50-254) (ligand)” yielded a Kd [1] of 2.3 nM, a koff [1] of 0.00052 s⁻¹ and a kon [1] of 230000 M⁻¹ s⁻¹.
“PE-conjugated anti 4-1BB mAb (clone 4B4-1, BD Biosciences) (antibody)” gave a percentage of 4-1BB positive activated T cells stained [2] of 64%.
Work on “WT AviTag-4-1BBL (trimeric recombinant human 4-1BBL extracellular domain with N-terminal AviTag, produced in E. coli and refolded) (from UniProt P41273 50-254) (ligand)” yielded a percentage of 4-1BB positive activated T cells stained [3] of 60% and an inhibition of the proliferation of CD3-stimulated PBMC (tritiated thymidine incorporation) [4] of 70%.

Reference: patent EP1736482A1
